Drawing on PMC4977002, this text covers Kd and koff for one substance.

As usually defined, the Kd is the constant that tells how readily two partners part at equilibrium. High values mean weaker binding, low ones tighter binding. A word on the koff: it is the first-order rate constant of dissociation. The low end stands for a long-lived complex, the high end for a short-lived complex.

Common to all, as to test: SPR
For orientation: In SPR one partner is held on a chip, and binding of the other changes the refractive index at the surface.

Test [1] concerns the target h9C12 L235A (mouse | human).
For test [2], the target named is h9C12 N434A (mouse | human).
Test [3] concerns the target h9C12 H435A (mouse | human).
The target in test [4] is h9C12 I253A (mouse | human).
Test [5] concerns the target h9C12 H433K (mouse | human).
Test [6] concerns the target h9C12 H310A (mouse | human).
Test [7] addresses h9C12 N434D (mouse | human).
In test [8] the target is h9C12 N434S (mouse | human).
Test [9] concerns the target humanized 9C12 (h9C12), wild type, human IgG1/kappa (mouse | human).
Test [10] has as its target h9C12 P329A (mouse | human).

As to “Recombinant human TRIM21 PRYSPRY (from UniProt P19474 287-465) (domain or fragment)”, the Kd in test [1] worked out at 0.226 µM; in [2] it was 2 µM; in test [3], 5.53 µM; in test [4], 0.565 µM; in [5], 21.5 µM; in test [6], 0.262 µM. The Kd in test [7] is 4.5 µM; in test [8] it was 3.6 µM; in test [9] it was 0.212 µM; in test [10] it was 0.22 µM. For the same substance, the koff in test [1] stood at 0.062 s⁻¹; in test [4], 0.177 s⁻¹; in test [6], 0.086 s⁻¹; in test [10] it was 0.062 s⁻¹.
